{"source": "paper PMC10003451", "about": "“Phosphorylated Peptide Derived from the Myosin Phosphatase Target Subunit Is a Novel Inhibitor of Protein Phosphatase-1” (International Journal of Molecular Sciences, 2023)", "binders": {"B1": {"name": "P-Thr696-MYPT1^690−701 (phosphorylated peptide of the inhibitory region of myosin phosphatase target subunit-1) (peptide)", "peptide": "RQSRRS[pT]QGVTL", "notes": "myosin phosphatase target subunit-1 (MYPT1), residues 690-701, phosphorylated at Thr696; no tags; also called R^690QSRRS(pT696)QGVTL^701; P-Thr-MYPT1^690−701; source: synthetic peptide, bought: Pepmic"}}, "key": {"[1]": {"target": "T1, recombinant protein phosphatase-1 catalytic subunit alpha (PP1cα) (UniProt P62136 1-330)", "T1 construct": "protein phosphatase-1 catalytic subunit, alpha isoform; recombinant; also called rPP1cα; recombinant PP1c; source: E. coli, purified from the bacterial lysate", "T1 sequence (P62136 whole entry, canonical isoform)": "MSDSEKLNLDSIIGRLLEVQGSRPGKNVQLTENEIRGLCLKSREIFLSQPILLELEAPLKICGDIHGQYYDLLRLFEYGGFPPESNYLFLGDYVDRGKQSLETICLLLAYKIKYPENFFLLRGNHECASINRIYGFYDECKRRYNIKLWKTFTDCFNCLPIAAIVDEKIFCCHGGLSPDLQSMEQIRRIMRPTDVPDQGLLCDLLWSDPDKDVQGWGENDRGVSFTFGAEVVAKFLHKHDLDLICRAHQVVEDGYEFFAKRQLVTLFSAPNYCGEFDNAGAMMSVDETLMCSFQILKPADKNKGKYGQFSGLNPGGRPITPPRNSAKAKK", "test": "MST; label-free (Monolith NT.LabelFree, intrinsic fluorescence of rPP1cα); 16-point two-fold peptide dilution 9.16 nM-300 µM mixed with rPP1cα 2 µM; 25 mM Tris/HCl, 100 mM NaCl, 1 mM DTT, 0.1% PEG 8000, pH 8.0", "conditions": "both partners purified"}, "[2]": {"target": "T1, recombinant protein phosphatase-1 …", "test": "ITC; MicroCal ITC200; rPP1cα (0.5-2 µM) in the cell, peptide (5-20 µM) in the syringe, 19 injections of 2 µL; 25 mM Tris/HCl pH 8.0, 150 mM NaCl, 1 mM TCEP; 25 °C; one set of sites model", "conditions": "both partners purified"}, "[3]": {"target": "native catalytic subunit of protein phosphatase-1 (PP1c) from rabbit skeletal muscle (rabbit, UniProt P62139 1-330)", "sequence (P62139 whole entry)": "as the sequence (P62136 whole entry, canonical isoform) above", "test": "cell-based or functional assay"}, "[4]": {"target": "Flag-MYPT1-PP1c complex (myosin phosphatase holoenzyme) ( | human (endogenous in …, UniProt O14974 1-1030; P62140 1-327)", "sequence (O14974 whole entry, chain 1 of 2)": "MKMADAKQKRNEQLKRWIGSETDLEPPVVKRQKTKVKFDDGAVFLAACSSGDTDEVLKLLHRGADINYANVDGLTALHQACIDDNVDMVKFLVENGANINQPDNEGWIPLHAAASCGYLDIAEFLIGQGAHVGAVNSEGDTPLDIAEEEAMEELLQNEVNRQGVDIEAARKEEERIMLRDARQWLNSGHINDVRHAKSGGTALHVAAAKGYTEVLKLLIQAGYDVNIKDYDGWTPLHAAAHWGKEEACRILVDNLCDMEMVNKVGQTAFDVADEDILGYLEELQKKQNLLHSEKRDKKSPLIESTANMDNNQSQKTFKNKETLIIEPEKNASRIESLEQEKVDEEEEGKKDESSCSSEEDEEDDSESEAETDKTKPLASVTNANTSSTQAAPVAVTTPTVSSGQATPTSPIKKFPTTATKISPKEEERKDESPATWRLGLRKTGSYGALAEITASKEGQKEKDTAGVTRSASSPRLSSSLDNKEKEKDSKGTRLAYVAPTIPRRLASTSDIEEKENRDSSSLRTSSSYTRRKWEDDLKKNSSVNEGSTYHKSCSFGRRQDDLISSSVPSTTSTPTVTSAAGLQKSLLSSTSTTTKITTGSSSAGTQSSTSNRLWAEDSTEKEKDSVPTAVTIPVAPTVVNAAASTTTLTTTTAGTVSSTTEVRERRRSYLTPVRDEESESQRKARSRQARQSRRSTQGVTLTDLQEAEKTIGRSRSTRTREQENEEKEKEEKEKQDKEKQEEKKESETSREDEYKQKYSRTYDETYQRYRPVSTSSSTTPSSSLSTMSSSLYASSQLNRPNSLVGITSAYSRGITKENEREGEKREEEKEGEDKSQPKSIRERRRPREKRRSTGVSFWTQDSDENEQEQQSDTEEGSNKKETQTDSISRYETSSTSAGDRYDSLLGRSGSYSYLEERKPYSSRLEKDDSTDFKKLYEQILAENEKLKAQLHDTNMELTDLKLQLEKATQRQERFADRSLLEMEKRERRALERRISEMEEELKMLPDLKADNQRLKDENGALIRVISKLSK", "sequence (P62140 whole entry, chain 2 of 2)": "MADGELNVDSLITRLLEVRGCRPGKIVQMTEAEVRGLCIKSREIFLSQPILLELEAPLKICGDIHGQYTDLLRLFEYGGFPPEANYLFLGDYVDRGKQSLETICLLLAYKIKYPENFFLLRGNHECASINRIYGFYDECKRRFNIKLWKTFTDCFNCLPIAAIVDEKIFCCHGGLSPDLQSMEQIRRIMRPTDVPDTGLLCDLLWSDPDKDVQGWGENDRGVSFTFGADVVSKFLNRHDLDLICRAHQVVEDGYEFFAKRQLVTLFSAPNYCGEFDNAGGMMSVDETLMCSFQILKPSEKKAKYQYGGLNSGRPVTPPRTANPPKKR", "test": "cell-based or functional assay"}}, "note": "Where no end group is shown, it is not given here. [ ]: non-standard residue; d: D form. pT = C[C@@H](OP(=O)(O)O)[C@H](N)C(=O)O", "data": [{"binder": "B1", "values": [{"measurement": "Kd", "setting": "[1]", "result": "33.2 ± 5.12", "unit": "µM"}, {"measurement": "Kd", "setting": "[2]", "result": "0.39 ± 0.18", "unit": "µM"}, {"measurement": "IC50 of inhibition of the phosphatase activity of rabbit skeletal muscle PP1c with 32P-MLC20 substrate", "setting": "[3]", "result": 3.84, "unit": "µM"}, {"measurement": "half-life of dephosphorylation of 10 µM 32P-MLC20 by 100 nM PP1c with 0, 10, 100 and 500 µM peptide (101.6, 149.7, 227.9, 604.06 s); the peptide competes with the substrate P-MLC20 on PP1c", "setting": "[3]", "result": 10.1, "unit": "min"}, {"measurement": "half-life of dephosphorylation of 100 µM peptide by 100 nM PP1c in the presence of 10 µM P-MLC20 (dot blot; 87.9 min without P-MLC20)", "setting": "[3]", "result": "~103", "unit": "min"}, {"measurement": "IC50 of inhibition of the phosphatase activity of Flag-MYPT1-PP1c with 32P-MLC20 substrate", "setting": "[4]", "result": 12.2, "unit": "µM"}]}]}
